B1: EGFP-tagged tPRMT8 (domain or fragment, human, UniProt Q9NR22 61-394, looked up)
chain: MSKLLNPEEMTSRDYYFDSYAHFGIHEEMLKDEVRTLTYRNSMYHNKHVFKDKVVLDVGSGTGILSMFAAKAGAKKVFGIECSSISDYSEKIIKANHLDNIITIFKGKVEEVELPVEKVDIIISEWMGYCLFYESMLNTVIFARDKWLKPGGLMFPDRAALYVVAIEDRQYKDFKIHWWENVYGFDMTCIRDVAMKEPLVDIVDPKQVVTNACLIKEVDIYTVKTEELSFTSAFCLQIQRNDYVHALVTYFNIEFTKCHKKMGFSTAPDAPYTHWKQTVFYLEDYLTVRRGEEIYGTISMKPNAKNVRDLDFTVDLDFKGQLCETSVSNDYKMR
B2: chimera tPRMT8C (β15 of tPRMT8 replaced with that of Hmt1) (domain or fragment, human | yeast)
chain: MSKLLNPEEMTSRDYYFDSYAHFGIHEEMLKDEVRTLTYRNSMYHNKHVFKDKVVLDVGSGTGILSMFAAKAGAKKVFGIECSSISDYSEKIIKANHLDNIITIFKGKVEEVELPVEKVDIIISEWMGYCLFYESMLNTVIFARDKWLKPGGLMFPDRAALYVVAIEDRQYKDFKIHWWENVYGFDMTCIRDVAMKEPLVDIVDPKQVVTNACLIKEVDIYTVKTEELSFTSAFCLQIQRNDYVHALVTYFNIEFTKCHKKMGFSTAPDAPYTHWKQTVFYLEDYLTVRRGEEIYGTISMKPNAKNVRDLDFTVDLDFKIDGNSRSRKNEGSYLMH

What was measured:
native gel or EMSA = biological target: the molecule itself; assay: native gel or EMSA
AUC = biological target: the molecule itself; assay: AUC

Protein | stoichiometry N (native gel or EMSA) | stoichiometry N (AUC)
B1 | 4 | 
B2 |  | 4

From PMC7570257 (Biochemistry, 2015)
